This assay concerns the target T1, NKSF larger subunit, 40 kD (human, UniProt P29460 23-328).
T1 construct: also called 40 kD subunit; NKSF heavy chain
T1 sequence: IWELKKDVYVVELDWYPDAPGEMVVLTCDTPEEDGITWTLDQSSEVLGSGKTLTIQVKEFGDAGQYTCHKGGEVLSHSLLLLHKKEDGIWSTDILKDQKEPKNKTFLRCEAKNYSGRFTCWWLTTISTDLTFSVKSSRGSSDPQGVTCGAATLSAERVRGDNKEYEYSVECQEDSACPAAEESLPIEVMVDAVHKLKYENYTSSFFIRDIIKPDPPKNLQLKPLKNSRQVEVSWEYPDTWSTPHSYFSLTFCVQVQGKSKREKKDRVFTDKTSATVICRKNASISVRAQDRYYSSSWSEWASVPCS
The assay is described as follows: SDS-PAGE of the iodinated 70 kD species, non-reduced against reduced with β-mercaptoethanol. As to the method: SDS-PAGE was performed according to the method of Laemmli [Laemmli, U. K., *Nature*, 227:680–685 (1970)] on 10% acrylamide slab gels (0.75 mm thickness). After electrophoresis the gels were either stained by the silver-nitrate method using a silver staining reagents [BioRad] or cut into 2 mm slices and eluted in 0.5 ml RPMI medium for 4 hours at 24° C. and assayed for NKSF activity. Apparent molecular weight was determined with protein standards, […] (94 kD), bovine serum albumin (67 kD), ovalbumin (43 kD), carbonic anhydrase (30 kD), soybean trypsin inhibitor (20 kD) and lactalbumin (14.4 kD).
The 70 kD species was eluted from the gel, iodinated using chloramine T [Sigma, St. Louis, Mo.] and rerun on a second SDS gel after boiling for two minutes in the presence of the reducing agent, β-mercaptoethanol (10%). […] Alternatively, NKSF may be a dimer formed by multiples of the larger or smaller subunits. The reduction of the native 70 kD NKSF appeared to destroy all of its ability to induce peripheral blood lymphocyte production of gamma interferon.

B1: NKSF smaller subunit, 30-35 kD (other)
chain: RNLPVATPDPGMFPCLHHSQNLLRAVSNMLQKARQTLEFYPCTSEEIDHEDITKDKTSTVEACLPLELTKNESCLNSRETSFITNGSCLASRKTSFMMALCLSSIYEDLKMYQVEFKTMNAKLLMDPKRQIFLDQNMLAVIDELMQALNFNSETVPQKSSLEEPDFYKTKIKLCILLHAFRIRAVTIDRVMSYLNAS
notes: also called 30 kD subunit; 30 kD (smaller version)
For the molecule B1, the binding result is recorded as “binds”.
